A short description of data set [1]: Purity analysis of ophthalmic preparations by HPLC. It counts as physicochemical. The conditions noted are these: after preparation, HPLC UV 205 nm. The method, then:
The purity changes of the ophthalmic preparations prepared in the above Examples and Comparative Examples were analyzed during the period from the initial time after preparation to 12 months later with a high performance liquid chromatography (HPLC), Agilent 1200 instrument under the conditions in Tables 1 and 2, and the results are shown in Table 3.

Data set [2] is described as follows: Impurity analysis (single maximum impurity, thymosin β4 sulfoxide) by HPLC and LC/MS. The conditions noted are these: after preparation; impurity identified as thymosin β4 sulfoxide. The format is physicochemical. The method, then: The amounts of impurities in the ophthalmic preparations prepared in the above Examples and Comparative Examples were analyzed as following, and the results are shown in Table 3.
Specifically, thymosin β4 sulfoxide was synthesized following the methods in the paper (Eur. J. Biochem. 223, 345-350 (1994), Nature Medicine 5(12), 1424 (1999)). Thymosin β4 sulfoxide is a substance modified from thymosin β4 by oxidation, which causes a change in its pharmacological activity compared to thymosin β4.
The molecular weight of the synthesized thymosin β4 sulfoxide was identified by mass analysis (LC/MS) using the MALDI-TOF MS instrument. The analyzed molecular weight was 4,978.5, which was consistent with the value in the document of 4,980±2.
The ophthalmic preparations prepared in Example 1 and Comparative Examples 1 and 2 and the synthesized thymosin β4 sulfoxide were analyzed by HPLC and LC/MS under the same conditions.

Turning to “thymosin β4 acetate [Thymosin β4 (raw material)]”, the “Purity (%)” value in data set [1] was 99.3%. In data set [2], the “Single maximum impurity (%)” value is “Not detected”.

The values above are taken from US10744088B2, “Method for preparing ophthalmic preparation containing thymosin beta-4” (G-TREEBNT CO., LTD., priority 2015, dated 2020).
